Test results from US8211429 (dated 2012).
Where a chain is given by its changes, count along the chain named. Read-outs that look alike come from different tables or passages of the source.

B1: YW64.3 (antibody, V domains shown)
VH: EVQLVESGGGLVQPGGSLRLSCAASGFSFSSEPISWVRQAPGKGLEWVSSITGKNGYTYYADSVKGRFTISADTSKNTAYLQMNSLRAEDTAVYYCARWGKKVYGMDVWGQGTLVTVSS
VL: DIQMTQSPSSLSASVGDRVTITCRASQSISSYLAWYQQKPGKAPKLLIYGASSRASGVPSRFSGSGSGTDFTLTISSLQPEDFATYYCQQYMSVPITFGQGTKVEIKR
B2: YW107.4 (antibody, V domains shown)
VH: EVQLVESGGGLVQPGGSLRLSCAASGFTFSSYAMSWVRQAPGKGLEWVSQISPAGGYTNYADSVKGRFTISADTSKNTAYLQMNSLRAEDTAVYYCARELPYYRMSKVMDVWGQGTLVTVSS
VL: B1 VL with M92Y, V94S, I96L
B3: YW107.4.87 (antibody, V domains shown)
VH: B2 VH
VL: B1 VL with S28Y, I29F, M92L, S93G, V94S, I96P

Experiments:
ErbB2-ECD [1] = biological target: T1, ErbB2-ECD (human, UniProt P04626); experiment: SPR up to 500 nM
BSA = BSA (bovine, UniProt P02769); experiment: SPR up to 500 nM
murine NRP2 [2] = biological target: T2, murine NRP2 (mouse, UniProt O35375); experiment: SPR up to 500 nM
T2 chain: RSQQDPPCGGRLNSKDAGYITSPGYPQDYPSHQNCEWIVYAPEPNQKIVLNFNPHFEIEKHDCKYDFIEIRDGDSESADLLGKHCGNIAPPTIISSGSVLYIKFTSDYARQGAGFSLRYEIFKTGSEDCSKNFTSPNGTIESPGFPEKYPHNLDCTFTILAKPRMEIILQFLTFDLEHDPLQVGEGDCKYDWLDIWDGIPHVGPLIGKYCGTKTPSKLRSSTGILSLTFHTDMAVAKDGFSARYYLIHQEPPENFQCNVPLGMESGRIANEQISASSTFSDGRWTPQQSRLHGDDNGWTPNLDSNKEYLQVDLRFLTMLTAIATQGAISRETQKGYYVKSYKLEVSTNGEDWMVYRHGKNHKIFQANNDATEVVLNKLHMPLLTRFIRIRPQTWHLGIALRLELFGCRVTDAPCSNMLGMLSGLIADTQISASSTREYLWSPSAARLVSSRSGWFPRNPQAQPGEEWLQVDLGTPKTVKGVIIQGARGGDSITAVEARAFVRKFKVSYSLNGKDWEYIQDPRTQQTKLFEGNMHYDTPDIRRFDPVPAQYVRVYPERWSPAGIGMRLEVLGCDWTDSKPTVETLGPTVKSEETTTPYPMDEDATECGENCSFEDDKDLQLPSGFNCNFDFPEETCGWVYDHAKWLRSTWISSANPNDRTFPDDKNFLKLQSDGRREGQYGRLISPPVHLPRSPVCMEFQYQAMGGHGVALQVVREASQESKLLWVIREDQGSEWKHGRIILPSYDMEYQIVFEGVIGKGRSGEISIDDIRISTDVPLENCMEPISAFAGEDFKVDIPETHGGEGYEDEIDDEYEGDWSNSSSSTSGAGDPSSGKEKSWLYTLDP

human NRP2 [3] = biological target: T3, human NRP2 (human, UniProt O60462); experiment: SPR up to 500 nM
T3 chain: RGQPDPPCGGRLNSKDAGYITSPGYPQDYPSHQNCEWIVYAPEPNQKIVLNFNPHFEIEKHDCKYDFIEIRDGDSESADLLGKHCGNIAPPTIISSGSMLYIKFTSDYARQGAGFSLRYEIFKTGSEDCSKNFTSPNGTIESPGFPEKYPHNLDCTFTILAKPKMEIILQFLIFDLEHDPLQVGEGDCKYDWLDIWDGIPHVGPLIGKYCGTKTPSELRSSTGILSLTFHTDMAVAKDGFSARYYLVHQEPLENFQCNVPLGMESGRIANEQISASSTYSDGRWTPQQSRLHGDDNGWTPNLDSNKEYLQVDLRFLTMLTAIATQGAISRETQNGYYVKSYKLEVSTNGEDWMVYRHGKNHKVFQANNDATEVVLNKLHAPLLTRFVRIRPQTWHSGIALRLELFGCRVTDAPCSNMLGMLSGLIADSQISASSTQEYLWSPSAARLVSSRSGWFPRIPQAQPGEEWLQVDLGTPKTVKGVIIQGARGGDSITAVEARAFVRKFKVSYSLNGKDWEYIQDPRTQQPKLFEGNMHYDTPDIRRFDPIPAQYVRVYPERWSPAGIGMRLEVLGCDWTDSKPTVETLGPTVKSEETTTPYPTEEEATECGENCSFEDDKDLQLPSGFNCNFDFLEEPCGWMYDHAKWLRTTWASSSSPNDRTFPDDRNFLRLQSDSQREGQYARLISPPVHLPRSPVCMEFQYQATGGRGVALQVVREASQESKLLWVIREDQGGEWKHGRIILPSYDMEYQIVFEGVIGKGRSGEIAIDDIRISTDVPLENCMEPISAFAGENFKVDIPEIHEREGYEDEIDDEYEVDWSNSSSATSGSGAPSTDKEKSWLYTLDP

ErbB2-ECD [4] = biological target: T1, ErbB2-ECD; experiment: SPR
murine NRP1 [5] = biological target: T4, murine NRP1 (mouse, UniProt P97333); experiment: competition phage ELISA
T4 chain: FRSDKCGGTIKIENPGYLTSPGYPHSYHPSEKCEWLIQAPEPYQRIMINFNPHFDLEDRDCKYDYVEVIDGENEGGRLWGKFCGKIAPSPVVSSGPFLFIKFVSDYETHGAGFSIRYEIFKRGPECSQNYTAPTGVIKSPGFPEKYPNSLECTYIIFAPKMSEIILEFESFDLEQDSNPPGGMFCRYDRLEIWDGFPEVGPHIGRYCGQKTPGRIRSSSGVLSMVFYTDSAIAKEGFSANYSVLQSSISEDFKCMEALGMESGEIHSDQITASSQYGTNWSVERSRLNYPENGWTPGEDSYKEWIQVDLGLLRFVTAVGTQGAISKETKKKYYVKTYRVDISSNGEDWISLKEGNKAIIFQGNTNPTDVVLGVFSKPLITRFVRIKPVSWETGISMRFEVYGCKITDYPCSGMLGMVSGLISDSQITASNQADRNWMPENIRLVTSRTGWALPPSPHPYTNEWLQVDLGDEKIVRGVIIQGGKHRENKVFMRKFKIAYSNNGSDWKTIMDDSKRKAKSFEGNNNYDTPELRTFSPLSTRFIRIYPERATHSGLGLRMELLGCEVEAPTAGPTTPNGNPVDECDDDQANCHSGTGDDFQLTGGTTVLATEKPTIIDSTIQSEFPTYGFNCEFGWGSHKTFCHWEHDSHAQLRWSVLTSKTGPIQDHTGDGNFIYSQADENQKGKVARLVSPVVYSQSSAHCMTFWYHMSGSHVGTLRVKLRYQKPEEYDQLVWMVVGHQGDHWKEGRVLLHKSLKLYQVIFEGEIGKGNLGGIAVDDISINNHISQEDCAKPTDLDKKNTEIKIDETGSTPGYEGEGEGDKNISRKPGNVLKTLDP

human NRP1 [6] = biological target: T5, human NRP1 (human, UniProt O14786); experiment: competition phage ELISA
murine NRP1 [7] = biological target: T4, murine NRP1; experiment: SPR 25C
murine NRP1 [8] = biological target: T4, murine NRP1; experiment: competition phage ELISA
human NRP1 [9] = biological target: T5, human NRP1; experiment: competition phage ELISA; remark: listed apart in the source
human NRP1 [10] = biological target: T5, human NRP1; experiment: SPR 25C
human NRP2 [11] = biological target: T3, human NRP2; experiment: SPR
murine NRP2 [12] = biological target: T2, murine NRP2; experiment: SPR

Sequence of BSA (P02769 25-607): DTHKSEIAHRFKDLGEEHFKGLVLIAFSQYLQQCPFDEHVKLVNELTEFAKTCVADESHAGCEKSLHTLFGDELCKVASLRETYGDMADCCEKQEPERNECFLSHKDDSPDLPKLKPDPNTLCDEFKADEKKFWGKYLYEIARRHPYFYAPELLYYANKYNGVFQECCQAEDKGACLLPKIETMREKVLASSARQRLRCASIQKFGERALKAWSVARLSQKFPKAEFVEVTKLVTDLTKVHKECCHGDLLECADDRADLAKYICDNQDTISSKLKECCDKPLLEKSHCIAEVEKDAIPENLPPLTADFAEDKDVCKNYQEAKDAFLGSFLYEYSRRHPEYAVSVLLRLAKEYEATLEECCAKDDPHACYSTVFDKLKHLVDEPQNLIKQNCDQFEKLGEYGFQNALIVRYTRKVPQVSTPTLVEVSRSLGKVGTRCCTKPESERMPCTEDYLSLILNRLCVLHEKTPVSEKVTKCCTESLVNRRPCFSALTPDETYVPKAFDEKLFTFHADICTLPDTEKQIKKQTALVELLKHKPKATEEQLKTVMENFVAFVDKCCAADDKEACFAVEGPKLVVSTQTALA

Binder	binding result (ErbB2-ECD [1])	binding result (BSA)	binding result (murine NRP2 [2])	binding result (human NRP2 [3])	binding result (ErbB2-ECD [4])	IC50 (murine NRP1 [5]) [nM]	IC50 (human NRP1 [6]) [nM]	Kd (murine NRP1 [7]) [nM]	IC50 (murine NRP1 [8]) [nM]	IC50 (human NRP1 [9]) [nM]	Kd (human NRP1 [10]) [nM]	binding result (human NRP2 [11])	binding result (murine NRP2 [12])
B1	no binding	no binding	no binding	no binding	–	–	–	–	–	–	–	–	–
B2	–	no binding	no binding	no binding	no binding	38	6.1	11	38	6.1	5	–	–
B3	–	–	–	–	–	–	–	–	–	–	–	no binding	no binding
